# Reference: US20190075806A1, “PROTEINASE B AND LACTASE SOLUTION USING ITS PROPERTIES AND METHOD FOR PRODUCING THE SAME” (GODO SHUSEI CO., LTD., priority 2016, published 2019)
# Target: neutral lactase (GODO-YNL2; unfragmented high molecular fraction F-1, about 120 kDa) (yeast, Kluyveromyces genus) (UniProt P00723)
# Assay: cell-based or functional assay
# Sequence of neutral lactase (GODO-YNL2; unfragmented high molecular fraction F-1, about 120 kDa) (yeast, Kluyveromyces genus) (P00723 whole entry, the tested form may be a part): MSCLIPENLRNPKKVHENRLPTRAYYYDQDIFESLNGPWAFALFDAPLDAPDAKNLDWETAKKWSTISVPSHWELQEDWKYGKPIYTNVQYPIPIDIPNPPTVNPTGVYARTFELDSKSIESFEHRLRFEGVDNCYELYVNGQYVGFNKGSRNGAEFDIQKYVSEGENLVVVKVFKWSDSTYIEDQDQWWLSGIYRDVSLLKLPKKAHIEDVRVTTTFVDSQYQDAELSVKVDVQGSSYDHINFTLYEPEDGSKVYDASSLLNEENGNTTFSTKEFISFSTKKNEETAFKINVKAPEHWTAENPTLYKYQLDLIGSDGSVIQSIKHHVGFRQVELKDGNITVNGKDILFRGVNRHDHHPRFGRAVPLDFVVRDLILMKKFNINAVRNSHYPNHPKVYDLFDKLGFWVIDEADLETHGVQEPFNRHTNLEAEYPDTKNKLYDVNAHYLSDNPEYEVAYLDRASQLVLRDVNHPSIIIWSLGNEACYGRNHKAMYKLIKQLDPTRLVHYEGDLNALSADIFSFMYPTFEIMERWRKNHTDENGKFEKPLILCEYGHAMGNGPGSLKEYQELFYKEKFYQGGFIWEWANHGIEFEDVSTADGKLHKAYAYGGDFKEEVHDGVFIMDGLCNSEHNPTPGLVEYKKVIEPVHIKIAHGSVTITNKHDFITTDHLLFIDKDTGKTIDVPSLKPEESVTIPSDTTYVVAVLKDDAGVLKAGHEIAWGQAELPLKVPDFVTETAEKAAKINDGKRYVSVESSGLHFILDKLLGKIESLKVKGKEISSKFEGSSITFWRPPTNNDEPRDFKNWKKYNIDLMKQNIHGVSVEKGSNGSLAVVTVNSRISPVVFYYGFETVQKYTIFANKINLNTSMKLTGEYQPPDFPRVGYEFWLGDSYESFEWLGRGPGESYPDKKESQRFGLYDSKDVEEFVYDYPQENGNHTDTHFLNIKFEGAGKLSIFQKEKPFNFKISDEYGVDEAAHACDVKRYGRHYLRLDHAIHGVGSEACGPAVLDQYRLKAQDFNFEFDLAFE
substance,measurement,value
proteinase B derived from Kluyveromyces lactis (mature enzyme),"amount of PrB not causing fragmentation of lactase (30° C., 20 hours, SDS-PAGE)",0.26 ng per NLU
